Measurements published in the supplement of paper PMC10567573.

B1: OAS1 (parent)
chain: TPAKSLDKFIEDYLLPDTCFRMQI

Variants of: B1
Test: protein stability index of a GFP-peptide fusion (GPS, HEK-293T) (PSI 1-6); higher = more stable
Settings: c terminus: a fixed tail appended
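Further: lentivirally expressed fusions sorted by FACS into six bins by GFP to DsRed ratio, PSI derived from sequencing read proportions per bin multiplied by bin number.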

| Variant | protein stability index |
| --- | --- |
| YPAKSLDKFIEDYLLPDTCFRMQI [T1Y] | 2.84 |
| RPAKSLDKFIEDYLLPDTCFRMQI [T1R] | 4.07 |
| QPAKSLDKFIEDYLLPDTCFRMQI [T1Q] | 2.42 |
| KPAKSLDKFIEDYLLPDTCFRMQI [T1K] | 2.84 |
| DPAKSLDKFIEDYLLPDTCFRMQI [T1D] | 1.82 |
| IPAKSLDKFIEDYLLPDTCFRMQI [T1I] | 2.59 |
| TPAKSLDKFIEDYLLPDLCFRMQI [T18L] | 2.42 |
| TPAKSLDKFIEDYLLPDNCFRMQI [T18N] | 2.41 |
| TPAKQLDKFIEDYLLPDTCFRMQI [S5Q] | 2.4 |
| TPAKCLDKFIEDYLLPDTCFRMQI [S5C] | 2.19 |
| TPAKMLDKFIEDYLLPDTCFRMQI [S5M] | 2.42 |
| TPAKHLDKFIEDYLLPDTCFRMQI [S5H] | 1.69 |
| TPAKKLDKFIEDYLLPDTCFRMQI [S5K] | 2.14 |
| TPAKRLDKFIEDYLLPDTCFRMQI [S5R] | 3.08 |
| TPAKSLDKFIEDYLLPDTWFRMQI [C19W] | 3.2 |
| TPAKSLDKFIEDYLLPDTFFRMQI [C19F] | 2.51 |
| TPAKSLDKFIEDYLLPDTTFRMQI [C19T] | 2.24 |
| TPAKSLDKFIEDYLLPDTCYRMQI [F20Y] | 2.56 |
| TPAKSLDKFIEDYLLPDTCDRMQI [F20D] | 2.43 |
| TPAKSLDKFIERYLLPDTCFRMQI [D12R] | 3.33 |
| TPAKSLDKFIEAYLLPDTCFRMQI [D12A] | 3.14 |
| TPAKSLDKFIESYLLPDTCFRMQI [D12S] | 2.1 |
| TPAKSLDKFIEKYLLPDTCFRMQI [D12K] | 2.75 |
| TPAKSLDKFIEQYLLPDTCFRMQI [D12Q] | 2.92 |

| Variant | protein stability index |
| --- | --- |
| TPAKSLDKMIEDYLLPDTCFRMQI [F9M] | 3.26 |
| TPAKSLDKQIEDYLLPDTCFRMQI [F9Q] | 2.15 |
| TPAKSLPKFIEDYLLPDTCFRMQI [D7P] | 1.73 |
| TPAKSLSKFIEDYLLPDTCFRMQI [D7S] | 3.08 |
| TPAKSLHKFIEDYLLPDTCFRMQI [D7H] | 3.9 |
| TPAKSLDKFIEDYLLPDTCFRMQP [I24P] | 2.12 |
| TPAKSLDKFIEDYLLPDTCFRMQK [I24K] | 1.99 |
| TPAKSLDKFIEDYLLPDTCFRMQW [I24W] | 2.39 |
| TPAKSLDKFIEDYLLPDTCFRMQL [I24L] | 2.15 |
| TPAKSLDKFIEDYLLPDTCFRMQF [I24F] | 2.76 |
| TPAKSLDKFIEDYLLPDTCFRMQQ [I24Q] | 1.67 |
| TPAKSLDKFINDYLLPDTCFRMQI [E11N] | 3.04 |
| TPAKSTDKFIEDYLLPDTCFRMQI [L6T] | 3.08 |
| TPAKSADKFIEDYLLPDTCFRMQI [L6A] | 2.89 |
| TPAKSCDKFIEDYLLPDTCFRMQI [L6C] | 2.68 |
| TPAKSDDKFIEDYLLPDTCFRMQI [L6D] | 1.38 |
| TPAKSNDKFIEDYLLPDTCFRMQI [L6N] | 2.45 |
| TPDKSLDKFIEDYLLPDTCFRMQI [A3D] | 1.54 |
| TPNKSLDKFIEDYLLPDTCFRMQI [A3N] | 2.47 |
| TPAPSLDKFIEDYLLPDTCFRMQI [K4P] | 2.13 |
| TPAKSLDKFREDYLLPDTCFRMQI [I10R] | 2.78 |
| TPAKSLDKFAEDYLLPDTCFRMQI [I10A] | 2.48 |
| TPAKSLDKFIEDYLLPDTCFRMLI [Q23L] | 3.03 |
| TPAKSLDKFIEDYLLPDTCFRMWI [Q23W] | 3.07 |

| Variant | protein stability index |
| --- | --- |
| TPAKSLDKFIEDYLVPDTCFRMQI [L15V] | 3.19 |
| TPAKSLDKFIEDYLLHDTCFRMQI [P16H] | 2.28 |
| TPAKSLDKFIEDYLLYDTCFRMQI [P16Y] | 1.82 |
| TPAKSLDKFIEDYLLVDTCFRMQI [P16V] | 3.9 |
| TPAKSLDKFIEDYLLIDTCFRMQI [P16I] | 2.41 |
| TPAKSLDKFIEDYLLSDTCFRMQI [P16S] | 2.49 |
| TPAKSLDKFIEDYLLADTCFRMQI [P16A] | 2.73 |
| TPAKSLDKFIEDYLLPDTCFRVQI [M22V] | 2.23 |
| TPAKSLDKFIEDYLLPDTCFRHQI [M22H] | 2.28 |
| TPAKSLDKFIEDYLLPDTCFRLQI [M22L] | 2.39 |
| TPAKSLDKFIEDYLLPNTCFRMQI [D17N] | 1.77 |
| TPAKSLDKFIEDYLLPETCFRMQI [D17E] | 2.69 |
| TPAKSLDKFIEDYLLPMTCFRMQI [D17M] | 2.99 |
| TPAKSLDKFIEDYLLPPTCFRMQI [D17P] | 3.25 |
| TPAKSLDKFIEDYWLPDTCFRMQI [L14W] | 2.18 |
| TPAKSLDKFIEDYCLPDTCFRMQI [L14C] | 2.35 |
| TPAKSLDKFIEDYKLPDTCFRMQI [L14K] | 2.37 |
| TPAKSLDKFIEDYSLPDTCFRMQI [L14S] | 1.74 |
| TPAKSLDKFIEDYRLPDTCFRMQI [L14R] | 1.8 |
| TPAKSLDCFIEDYLLPDTCFRMQI [K8C] | 2.99 |
| TPAKSLDNFIEDYLLPDTCFRMQI [K8N] | 2.09 |
| TPAKSLDQFIEDYLLPDTCFRMQI [K8Q] | 1.68 |
| TPAKSLDSFIEDYLLPDTCFRMQI [K8S] | 2.43 |
| TMAKSLDKFIEDYLLPDTCFRMQI [P2M] | 3.28 |
